In patent publication US20250368978A1, “SQUALENE HOPENE CYCLASE VARIANTS FOR PRODUCING SCLAREOLIDE” (INTERNATIONAL FLAVORS & FRAGRANCES INC., priority 2022, published 2025):

Tests used:
[1] = Effect of single mutations of GmSHC on activity (site saturation mutagenesis / summary of variants); type: biochemical, Gluconobacter morbifer; settings: single position in GmSHC, SEQ ID NO: 2 numbering
From the text: Three different approaches were taken to generate SHC variants: rational mutagenesis (site-directed mutagenesis), semi-rational mutagenesis (via site-saturation library), and random mutagenesis (error prone PCR). Variants were expressed in a heterologous system and screened by GC.
To improve the conversion of HFA to sclareolide, GmSHC was mutated at one or more of the residues at position 45, 54, 178, 184, 222, 278, 284, 326, 348, 574 and 683 of SEQ ID NO: 2. Silent mutations at positions 249, 348, and 574 identified in an error prone library, were also introduced in the GmSHC of SEQ ID NO: 2.

[2] = SHC variant screening reactions: conversion of HFA to sclareolide by freeze-dried whole cells, GC analysis; type: biochemical, Gluconobacter morbifer; settings: 20 mg/mL HFA, 50% enzyme loading; relative to initial mutant
Description: SHC Variant Enzyme Expression. Wild-type and the GmSHC variants of Table 5 were individually cloned into pET28a(+). These DNA constructs were transformed into Lemo21 (DE3) E. coli and plated onto agar plates containing Kanamycin. These were incubated overnight at 37° C. A single bacterial colony was picked and used to inoculate 10 mL LB+Kanamycin in a 50 mL falcon tube. This primary culture was incubated overnight at 37° C. with agitation. These cultures (10 mL) were used to inoculate 1L LB+Kanamycin in a shake flask, which was subsequently incubated at 37° C. at 180 rpm for about 4 hours. Protein expression was then induced with the addition of 0.4 mM IPTG and 0.2 mM L-rhamnose. The incubator temperature was lowered to 25° C. and the cultures further incubated at 180 rpm overnight. The next day, the cultures were centrifuged at 4000 rpm for 10 minutes and the supernatant discarded. Cell pellets were resuspended in 0.1 M Potassium phosphate buffer pH 7.4 and exposed to 1 round of freeze/thawing before lyophilization and then use in the reaction assay.
SHC Variant Screening Reactions. Sodium citrate buffer 0.2 M, pH 5 was prepared and 500 μL of this buffer was added to freeze-dried whole cells of each variant (from 1 L shake flask fermentation of E. coli transformed with desired variant plasmid). The results were obtained with an enzyme loading of 50% (w/w). Subsequently, HFA (20 mg/mL) was added to the buffer/enzyme mix. The reactions were incubated at 25° C. with agitation for 72 hours. To stop the reaction and extract the products, a 2X volume of 3:2, heptane: isopropanol was added to each reaction. These were then incubated at 37° C. for 30 minutes with agitation to mix thoroughly. The reactions were centrifuged for 10 minutes at 4000 rpm to pellet any cellular material. The upper organic layer was then removed and placed in a clean gas chromatography (GC) vial.
GC Analysis Method. A GC analytical method was used to detect each of the starting materials and products used in the screening reactions. Due to the volume of samples generated, a fast method was developed with a run time of only 4.5 minutes.
No metal ions were included in the reaction.
Further analysis was conducted to identify one or more optimal SHC enzymes. In particular, substrate loading was increased to 20 mg/mL and incubation with a reduced enzyme loading (50%).

Row | Molecule | effect of mutation on activity [1] | Fold improvements (sclareolide production) [2] [Fold]
1 | Q178S: GmSHC mutation Q178S selected by site-saturation mutagenesis (protein, Gluconobacter morbifer, GmSHC mutation Q178S selected by site-saturation mutagenesis) MSPADISTKSSSFQRLDNMLPEAVSSACDWLIDQQKPDGHWVGPVESNACMEAQWCLALWFLGQEDHPLRPRLAQALLEMQREDGSWGIYVGADHGDINTTVEAYAALRSMGYAADMPIMAKSAAWIQQKGGLRNVRVFTRYWLALIGEWPWDKTPNLPPEIIWLPDNFIFSIYNFASWARATMMPLTILSARRPSRPLLPENRLDGLFPEGRENFDYELPVKGEEDLWGRFFRAADKGLHSLQSFPVRRFVPREAAIRHVIEWIIRHQDADGGWGGIQPPWIYGLMALSVEGYPLHHPVLAKAMDALNDPGWRRDKGDASWIQATNSPVWDTMLAVLALHDAGAEDRYSPQMDKAIGWLLDRQVRVKGDWSIKLPDTEPGGWAFEYANDKYPDTDDTAVALIALAGCRHRPEWRERDIEGAISRGVNWLLAMQSSSGGWGAFDKDNNRSILTKIPFCDFGEALDPPSVDVTAHVLEAFGLLGISRNHPSVQKALAYIRSEQERNGAWFGRWGVNYVYGTGAVLPALAAIGEDMTQPYIVRACDWLMSVQQENGGWGESCASYMDINAVGHGVATASQTAWALIGLLAAKRPKDREAIARGCQFLIERQEDGSWTEEEYTGTGFPGYGVGQAIKLDDPSLPDRLLQGAELSRAFMLRYDLYRQYFPVMALSRARRMMKEDASAAA | improving activity | 
2 | A683E: GmSHC mutation A683E in the C-terminal domain (protein, Gluconobacter morbifer, GmSHC mutation A683E in the C-terminal domain) MSPADISTKSSSFQRLDNMLPEAVSSACDWLIDQQKPDGHWVGPVESNACMEAQWCLALWFLGQEDHPLRPRLAQALLEMQREDGSWGIYVGADHGDINTTVEAYAALRSMGYAADMPIMAKSAAWIQQKGGLRNVRVFTRYWLALIGEWPWDKTPNLPPEIIWLPDNFIFSIYNFAQWARATMMPLTILSARRPSRPLLPENRLDGLFPEGRENFDYELPVKGEEDLWGRFFRAADKGLHSLQSFPVRRFVPREAAIRHVIEWIIRHQDADGGWGGIQPPWIYGLMALSVEGYPLHHPVLAKAMDALNDPGWRRDKGDASWIQATNSPVWDTMLAVLALHDAGAEDRYSPQMDKAIGWLLDRQVRVKGDWSIKLPDTEPGGWAFEYANDKYPDTDDTAVALIALAGCRHRPEWRERDIEGAISRGVNWLLAMQSSSGGWGAFDKDNNRSILTKIPFCDFGEALDPPSVDVTAHVLEAFGLLGISRNHPSVQKALAYIRSEQERNGAWFGRWGVNYVYGTGAVLPALAAIGEDMTQPYIVRACDWLMSVQQENGGWGESCASYMDINAVGHGVATASQTAWALIGLLAAKRPKDREAIARGCQFLIERQEDGSWTEEEYTGTGFPGYGVGQAIKLDDPSLPDRLLQGAELSRAFMLRYDLYRQYFPVMALSRARRMMKEDASEAA | positive effect on activity | 
3 | M184T: GmSHC mutant M184T from site saturation mutagenesis (protein, Gluconobacter morbifer, GmSHC mutant M184T from site saturation mutagenesis) MSPADISTKSSSFQRLDNMLPEAVSSACDWLIDQQKPDGHWVGPVESNACMEAQWCLALWFLGQEDHPLRPRLAQALLEMQREDGSWGIYVGADHGDINTTVEAYAALRSMGYAADMPIMAKSAAWIQQKGGLRNVRVFTRYWLALIGEWPWDKTPNLPPEIIWLPDNFIFSIYNFAQWARATTMPLTILSARRPSRPLLPENRLDGLFPEGRENFDYELPVKGEEDLWGRFFRAADKGLHSLQSFPVRRFVPREAAIRHVIEWIIRHQDADGGWGGIQPPWIYGLMALSVEGYPLHHPVLAKAMDALNDPGWRRDKGDASWIQATNSPVWDTMLAVLALHDAGAEDRYSPQMDKAIGWLLDRQVRVKGDWSIKLPDTEPGGWAFEYANDKYPDTDDTAVALIALAGCRHRPEWRERDIEGAISRGVNWLLAMQSSSGGWGAFDKDNNRSILTKIPFCDFGEALDPPSVDVTAHVLEAFGLLGISRNHPSVQKALAYIRSEQERNGAWFGRWGVNYVYGTGAVLPALAAIGEDMTQPYIVRACDWLMSVQQENGGWGESCASYMDINAVGHGVATASQTAWALIGLLAAKRPKDREAIARGCQFLIERQEDGSWTEEEYTGTGFPGYGVGQAIKLDDPSLPDRLLQGAELSRAFMLRYDLYRQYFPVMALSRARRMMKEDASAAA | increase in activity | 
4 | Y284W: GmSHC variant Y284W from site saturation mutagenesis (protein) MSPADISTKSSSFQRLDNMLPEAVSSACDWLIDQQKPDGHWVGPVESNACMEAQWCLALWFLGQEDHPLRPRLAQALLEMQREDGSWGIYVGADHGDINTTVEAYAALRSMGYAADMPIMAKSAAWIQQKGGLRNVRVFTRYWLALIGEWPWDKTPNLPPEIIWLPDNFIFSIYNFAQWARATMMPLTILSARRPSRPLLPENRLDGLFPEGRENFDYELPVKGEEDLWGRFFRAADKGLHSLQSFPVRRFVPREAAIRHVIEWIIRHQDADGGWGGIQPPWIWGLMALSVEGYPLHHPVLAKAMDALNDPGWRRDKGDASWIQATNSPVWDTMLAVLALHDAGAEDRYSPQMDKAIGWLLDRQVRVKGDWSIKLPDTEPGGWAFEYANDKYPDTDDTAVALIALAGCRHRPEWRERDIEGAISRGVNWLLAMQSSSGGWGAFDKDNNRSILTKIPFCDFGEALDPPSVDVTAHVLEAFGLLGISRNHPSVQKALAYIRSEQERNGAWFGRWGVNYVYGTGAVLPALAAIGEDMTQPYIVRACDWLMSVQQENGGWGESCASYMDINAVGHGVATASQTAWALIGLLAAKRPKDREAIARGCQFLIERQEDGSWTEEEYTGTGFPGYGVGQAIKLDDPSLPDRLLQGAELSRAFMLRYDLYRQYFPVMALSRARRMMKEDASAAA | increases activity | 
5 | V45L + Q54E + V222R + I278T + T326S + R348R: GmSHC variant with these substitutions relative to SEQ ID NO: 2 (protein, Gluconobacter morbifer) MSPADISTKSSSFQRLDNMLPEAVSSACDWLIDQQKPDGHWVGPLESNACMEAEWCLALWFLGQEDHPLRPRLAQALLEMQREDGSWGIYVGADHGDINTTVEAYAALRSMGYAADMPIMAKSAAWIQQKGGLRNVRVFTRYWLALIGEWPWDKTPNLPPEIIWLPDNFIFSIYNFAQWARATMMPLTILSARRPSRPLLPENRLDGLFPEGRENFDYELPRKGEEDLWGRFFRAADKGLHSLQSFPVRRFVPREAAIRHVIEWIIRHQDADGGWGGTQPPWIYGLMALSVEGYPLHHPVLAKAMDALNDPGWRRDKGDASWIQASNSPVWDTMLAVLALHDAGAEDRYSPQMDKAIGWLLDRQVRVKGDWSIKLPDTEPGGWAFEYANDKYPDTDDTAVALIALAGCRHRPEWRERDIEGAISRGVNWLLAMQSSSGGWGAFDKDNNRSILTKIPFCDFGEALDPPSVDVTAHVLEAFGLLGISRNHPSVQKALAYIRSEQERNGAWFGRWGVNYVYGTGAVLPALAAIGEDMTQPYIVRACDWLMSVQQENGGWGESCASYMDINAVGHGVATASQTAWALIGLLAAKRPKDREAIARGCQFLIERQEDGSWTEEEYTGTGFPGYGVGQAIKLDDPSLPDRLLQGAELSRAFMLRYDLYRQYFPVMALSRARRMMKEDASAAA |  | 60
